Consider 8 molecules from US10919953 (dated 2021).

As usually defined, the Kd is a measure of binding affinity in units of concentration. Lower therefore signals a tighter complex.

Read-outs that look alike come from different tables or passages of the source.

For one assay, the target named is human FcRn (human, UniProt P55899). Briefly: SPR, pH 6.0, 25C. A general note: SPR reads the build-up and loss of mass on a sensor chip optically.
Assay [1] deals with T1, FcgRIa (human, UniProt P12314).
T1 chain: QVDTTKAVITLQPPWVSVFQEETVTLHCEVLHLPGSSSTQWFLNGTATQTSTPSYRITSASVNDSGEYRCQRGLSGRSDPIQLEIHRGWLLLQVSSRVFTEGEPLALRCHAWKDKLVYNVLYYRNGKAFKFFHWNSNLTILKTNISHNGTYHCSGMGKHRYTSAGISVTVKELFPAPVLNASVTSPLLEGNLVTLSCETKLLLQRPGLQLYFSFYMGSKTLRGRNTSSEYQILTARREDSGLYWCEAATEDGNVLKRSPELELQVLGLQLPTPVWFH
Briefly: SPR.

For assay [2], the target named is T2, FcgRIIaR (human, UniProt P12318).
T2 chain: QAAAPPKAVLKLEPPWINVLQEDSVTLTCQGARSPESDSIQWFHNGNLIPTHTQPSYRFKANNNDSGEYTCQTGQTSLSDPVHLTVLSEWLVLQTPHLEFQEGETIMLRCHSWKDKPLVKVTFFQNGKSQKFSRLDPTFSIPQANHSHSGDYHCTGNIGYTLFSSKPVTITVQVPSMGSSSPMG
Briefly: SPR.

The target in assay [3] is T3, FcgRIIb (human, UniProt P31994).
T3 chain: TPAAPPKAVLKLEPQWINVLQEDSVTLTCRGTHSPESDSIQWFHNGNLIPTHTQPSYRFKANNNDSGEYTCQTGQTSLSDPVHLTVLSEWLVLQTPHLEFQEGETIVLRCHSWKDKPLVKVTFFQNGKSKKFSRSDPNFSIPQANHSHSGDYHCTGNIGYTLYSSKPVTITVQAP
Kind of assay: SPR.

For assay [4], the target named is T1, FcgRIa. Briefly: SPR.
The target in assay [5] is T2, FcgRIIaR. Briefly: SPR.
The target in assay [6] is T3, FcgRIIb. Briefly: SPR.
The target of assay [7] is T2, FcgRIIaR. Briefly: SPR.
The target of assay [8] is T1, FcgRIa. Kind of assay: SPR.
Assay [9] concerns the target T3, FcgRIIb. Kind of assay: SPR.
The target in the next assay is T4, FcgRIIaH (human, UniProt P12318).
T4 chain: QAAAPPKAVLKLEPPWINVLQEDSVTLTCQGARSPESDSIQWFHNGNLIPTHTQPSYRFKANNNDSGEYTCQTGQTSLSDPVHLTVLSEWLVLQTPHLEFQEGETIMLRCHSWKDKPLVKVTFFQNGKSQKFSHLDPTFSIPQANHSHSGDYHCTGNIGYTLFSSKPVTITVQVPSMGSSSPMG
Briefly: SPR.

For assay [10], the target named is T1, FcgRIa. Kind of assay: SPR.
In assay [11] the target is T5, FcgRIIIaV (human, UniProt P08637). Kind of assay: SPR.
Assay [12] addresses T3, FcgRIIb. Kind of assay: SPR.
The target of assay [13] is T5, FcgRIIIaV. Briefly: SPR. The source holds these as a separate data set.
Assay [14] deals with T2, FcgRIIaR. Briefly: SPR.

Sequence of human FcRn (P55899 24-297, chain 1 of 2): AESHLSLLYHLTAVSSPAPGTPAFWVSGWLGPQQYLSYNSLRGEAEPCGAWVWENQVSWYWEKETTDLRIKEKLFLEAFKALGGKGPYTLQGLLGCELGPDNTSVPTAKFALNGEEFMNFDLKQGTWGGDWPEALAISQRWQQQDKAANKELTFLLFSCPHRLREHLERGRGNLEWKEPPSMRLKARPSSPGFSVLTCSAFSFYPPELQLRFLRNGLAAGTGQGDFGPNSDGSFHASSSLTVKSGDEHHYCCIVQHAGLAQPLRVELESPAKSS
Sequence of human FcRn (chain, as listed by the source, chain 2 of 2): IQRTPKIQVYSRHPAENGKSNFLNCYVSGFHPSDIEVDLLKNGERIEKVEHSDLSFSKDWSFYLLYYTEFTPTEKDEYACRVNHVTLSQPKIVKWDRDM
T5 sequence (P08637 17-208 F176V): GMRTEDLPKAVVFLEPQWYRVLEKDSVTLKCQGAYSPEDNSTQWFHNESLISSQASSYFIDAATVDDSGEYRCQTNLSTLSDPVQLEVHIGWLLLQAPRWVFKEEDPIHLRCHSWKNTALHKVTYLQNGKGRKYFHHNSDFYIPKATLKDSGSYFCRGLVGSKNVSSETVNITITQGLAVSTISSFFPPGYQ

B1: Fv4-IgG1 (antibody)
chain 1: not shown
chain 2: DIQMTQSPSSLSASVGDSVTITCQASTDISSHLNWYQQKPGKAPELLIYYGSHLLSGVPSRFSGSGSGTDFTFTISSLEAEDAATYYCGQGNRLPYTFGQGTKVEIERTVAAPSVFIFPPSDEQLKSGTASVVCLLNNFYPREAKVQWKVDNALQSGNSQESVTEQDSKDSTYSLSSTLTLSKADYEKHKVYACEVTHQGLSSPVTKSFNRGEC
With B1, the Kd with human FcRn was found to be 1400 nM.

B2: IL6R-BP478/IL6R-L (antibody)
chain 1: QVQLQESGPGLVKPSETLSLTCAVSGHSISHDHAWSWVRQPPGEGLEWIGFISYSGITNYNPSLQGRVTISRDNSKNTLYLQMNSLRAEDTAVYYCARSLARTTAMDYWGEGTLVTVSSASTKGPSVFPLAPCSRSTSESTAALGCLVKDYFPEPVTVSWNSGALTSGVHTFPAVLQSSGLYSLSSVVTVPSSSLGTKTYTCNVDHKPSNTKVDKRVESKYGPPCPPCPAPDLLGDDSVFLFPPKPKDTLMISRTPEVTCVVVDVSDEDGEVKFNWYVDGVEVHNAKTKPREEQDNSTYRVVSVLTVLHQDWLNGKEYKCKVSNKALPRPIEKTISKAKGQPREPQVYTLPPSRDELTKNQVSLTCLVKGFYPSDIAVEWESNGQPENNYKTTPPVLDSDGSFFLYSKLTVDKSRWQQGNVFSCSVMHEALHNHYTQESLSLSP
chain 2: not shown
Turning to B2, the Kd with FcgRIa [1] was 7.7 nM; with FcgRIIaR [2] it was 540 nM; with FcgRIIb [3] it was 19 nM.

B3: IL6R-BP471/IL6R-L (antibody)
chain 1: QVQLQESGPGLVKPSETLSLTCAVSGHSISHDHAWSWVRQPPGEGLEWIGFISYSGITNYNPSLQGRVTISRDNSKNTLYLQMNSLRAEDTAVYYCARSLARTTAMDYWGEGTLVTVSSASTKGPSVFPLAPSSKSTSGGTAALGCLVKDYFPEPVTVSWNSGALTSGVHTFPAVLQSSGLYSLSSVVTVPSSSLGTQTYICNVNHKPSNTKVDKKVEPKSCDKTHTCPPCPAPDLLGDDSVFLFPPKPKDTLMISRTPEVTCVVVDVSDEDGEVKFNWYVDGVEVHNAKTKPREEQDNSTYRVVSVLTVLHQDWLNGKEYKCKVSNKALSRPIEKTISKAKGQPREPQVYTLPPSRDELTKNQVSLTCLVKGFYPSDIAVEWESNGQPENNYKTTPPVLDSDGSFFLYSKLTVDKSRWQQGNVFSCSVMHEALHNHYTQESLSLSP
chain 2: not shown
Regarding B3, the Kd with FcgRIa [1] amounted to 7.3 nM; with FcgRIIaR [2], 800 nM; in the assay with FcgRIIb [3] it was 35 nM.

B4: IL6R-BP230/IL6R-L (antibody)
chain 1: QVQLQESGPGLVKPSETLSLTCAVSGHSISHDHAWSWVRQPPGEGLEWIGFISYSGITNYNPSLQGRVTISRDNSKNTLYLQMNSLRAEDTAVYYCARSLARTTAMDYWGEGTLVTVSSASTKGPSVFPLAPSSKSTSGGTAALGCLVKDYFPEPVTVSWNSGALTSGVHTFPAVLQSSGLYSLSSVVTVPSSSLGTQTYICNVNHKPSNTKVDKKVEPKSCDKTHTCPPCPAPDLLGDDSVFLFPPKPKDTLMISRTPEVTCVVVDVSDEDGEVKFNWYVDGVEVHNAKTKPREEQDNSTYRVVSVLTVLHQDWLNGKEYKCKVSNKALPRPIEKTISKAKGQPREPQVYTLPPSRDELTKNQVSLTCLVKGFYPSDIAVEWESNGQPENNYKTTPPVLDSDGSFFLYSKLTVDKSRWQQGNVFSCSVMHEALHNHYTQESLSLSP
chain 2: not shown
Consider B4, for which the Kd worked out at 10 nM with FcgRIa [4], 490 nM in the assay with FcgRIIaR [5] and 18 nM in the assay with FcgRIIb [6].

B5: IL6R-BP223/IL6R-L (antibody)
chain 1: QVQLQESGPGLVKPSETLSLTCAVSGHSISHDHAWSWVRQPPGEGLEWIGFISYSGITNYNPSLQGRVTISRDNSKNTLYLQMNSLRAEDTAVYYCARSLARTTAMDYWGEGTLVTVSSASTKGPSVFPLAPSSKSTSGGTAALGCLVKDYFPEPVTVSWNSGALTSGVHTFPAVLQSSGLYSLSSVVTVPSSSLGTQTYICNVNHKPSNTKVDKKVEPKSCDKTHTCPPCPAPEYLGDDSVFLFPPKPKDTLMISRTPEVTCVVVDVSDEDGEVKFNWYVDGVEVHNAKTKPREEQYNSTYRVVSVLTVLHQDWLNGKEYKCKVSNAALPRPIEKTISKAKGQPREPQVYTLPPSRDELTKNQVSLTCLVKGFYPSDIAVEWESNGQPENNYKTTPPVLDSDGSFFLYSKLTVDKSRWQQGNVFSCSVMHEALHNHYTQESLSLSP
chain 2: not shown
B5 yielded a Kd with FcgRIIaR [7] of 600 nM.

B6: Fv4-P587-LS (antibody)
chain 1: QVQLQESGPGLVKPSETLSLTCAVSGHSISHDHAWSWVRQPPGEGLEWIGFISYSGITNYNPSLQGRVTISRDNSKNTLYLQMNSLRAEDTAVYYCARSLARTTAMDYWGEGTLVTVSSASTKGPSVFPLAPSSKSTSGGTAALGCLVKDYFPEPVTVSWNSGALTSGVHTFPAVLQSSGLYSLSSVVTVPSSSLGTQTYICNVNHKPSNTKVDKKVEPKSCDKTHTCPPCPAPDLLGGDSVFLFPPKPKDTLMISRTPEVTCVVIDVAEEDGEVKFNWYVDGVEVHNAKTKPREEQYNSTYRVVSVLTVLHQDWLNGKEYKCKVSNKALPAPIEKTISKAKGQPREPQVYTLPPSRDELTKNQVSLTCLVKGFYPSDIAVEWESNGQPENNYKTTPPVLDSDGSFFLYSKLTVDKSRWQQGNVFSCSVLHEALHSHYTQKSLSLSP
chain 2: DIQMTQSPSSLSASVGDSVTITCQASTDISSHLNWYQQKPGKAPELLIYYGSHLLSGVPSRFSGSGSGTDFTFTISSLEAEDAATYYCGQGNRLPYTFGQGTKVEIERTVAAPSVFIFPPSDEQLKSGTASVVCLLNNFYPREAKVQWKVDNALQSGNSQESVTEQDSKDSTYSLSSTLTLSKADYEKHKVYACEVTHQGLSSPVTKSFNRGEC
As to B6, in the assay with human FcRn, the Kd came to 120 nM.

B7: IL6R-BP253/IL6R-L (antibody)
chain 1: QVQLQESGPGLVKPSETLSLTCAVSGHSISHDHAWSWVRQPPGEGLEWIGFISYSGITNYNPSLQGRVTISRDNSKNTLYLQMNSLRAEDTAVYYCARSLARTTAMDYWGEGTLVTVSSASTKGPSVFPLAPSSKSTSGGTAALGCLVKDYFPEPVTVSWNSGALTSGVHTFPAVLQSSGLYSLSSVVTVPSSSLGTQTYICNVNHKPSNTKVDKKVEPKSCDKTHTCPPCPAPELLGGPSVFLFPPKPKDTLMISRTPEVTCVVVDVEHEDPEVKFNWYVDGVEVHNAKTKPREEQYNSTYRVVSVLTVLHQDWLNGKEYKCKVSNKAFPAPIEKTISKAKGQPREPQVYTLPPSRDELTKNQVSLTCLVKGFYPSDIAVEWESNGQPENNYKTTPPVLDSDGSFFLYSKLTVDKSRWQQGNVFSCSVMHEALHNHYTQESLSLSP
chain 2: not shown
Consider B7, for which the Kd with FcgRIa [8] is 0.067 nM; in the assay with FcgRIIb [9] it was 8.9 nM; in the assay with FcgRIIaH it was 860 nM; with FcgRIa [10], 0.05 nM; with FcgRIIIaV [11], 400 nM; with FcgRIIb [12], 11 nM. In addition, the Kd in the assay with FcgRIIIaV [13] turned out to be 3600 nM; with FcgRIIaR [14], 2.3 nM.

B8: Fv4-P587 (antibody)
chain 1: QVQLQESGPGLVKPSETLSLTCAVSGHSISHDHAWSWVRQPPGEGLEWIGFISYSGITNYNPSLQGRVTISRDNSKNTLYLQMNSLRAEDTAVYYCARSLARTTAMDYWGEGTLVTVSSASTKGPSVFPLAPSSKSTSGGTAALGCLVKDYFPEPVTVSWNSGALTSGVHTFPAVLQSSGLYSLSSVVTVPSSSLGTQTYICNVNHKPSNTKVDKKVEPKSCDKTHTCPPCPAPDLLGGDSVFLFPPKPKDTLMISRTPEVTCVVIDVAEEDGEVKFNWYVDGVEVHNAKTKPREEQYNSTYRVVSVLTVLHQDWLNGKEYKCKVSNKALPAPIEKTISKAKGQPREPQVYTLPPSRDELTKNQVSLTCLVKGFYPSDIAVEWESNGQPENNYKTTPPVLDSDGSFFLYSKLTVDKSRWQQGNVFSCSVMHEALHNHYTQKSLSLSP
chain 2: DIQMTQSPSSLSASVGDSVTITCQASTDISSHLNWYQQKPGKAPELLIYYGSHLLSGVPSRFSGSGSGTDFTFTISSLEAEDAATYYCGQGNRLPYTFGQGTKVEIERTVAAPSVFIFPPSDEQLKSGTASVVCLLNNFYPREAKVQWKVDNALQSGNSQESVTEQDSKDSTYSLSSTLTLSKADYEKHKVYACEVTHQGLSSPVTKSFNRGEC
As for B8, the Kd with human FcRn was found to be 1500 nM.
